From the RNAGym collection of RNA variant scans (doi:10.1021/acssynbio.7b00057)

B1: Pistol ribozyme (parent)
chain: GGGUCGUUGUUCCAUAAUCGCGUGGAUAUGGCACGCAAGUUUCUACCGGGCACCGUAAAUGUCCGACUGGAGCCGUUCGGGCGGCUAUAAACAGACCUCAGGCCCGAAGCGUGGCGGCACCUGCCGCCGGUGGUAAAAAAGAUCGGAAGAGCACACGUCU

Variants of: B1
Assay: aptazyme ON/OFF ratio, guanine; higher = stronger switching; co-transcriptional cleavage with and without guanine

Row | Variant | aptazyme ON/OFF ratio
1 | GGGUCGUGGACUUAUAAUCGCGUGGAUAUGGCACGCAAGUUUCUACCGGGCACCGUAAAUGUCCGACUGGAGCCGUUCGGGCGGCUAUAAACAGACCUCAGGCCCGAAGCGUGGCGGCACCUGCCGCCGGUGGUAAAAAAGAUCGGAAGAGCACACGUCU [U8G U10A U11C C12U C13U] | 1.14
2 | GGGUCGUGGACUAAUAAUCGCGUGGAUAUGGCACGCAAGUUUCUACCGGGCACCGUAAAUGUCCGACUGGAGCCGUUCGGGCGGCUAUAAACAGACCUCAGGCCCGAAGCGUGGCGGCACCUGCCGCCGGUGGUAAAAAAGAUCGGAAGAGCACACGUCU [U8G U10A U11C C12U C13A] | 1.2
3 | GGGUCGUGGACUGAUAAUCGCGUGGAUAUGGCACGCAAGUUUCUACCGGGCACCGUAAAUGUCCGACUGGAGCCGUUCGGGCGGCUAUAAACAGACCUCAGGCCCGAAGCGUGGCGGCACCUGCCGCCGGUGGUAAAAAAGAUCGGAAGAGCACACGUCU [U8G U10A U11C C12U C13G] | 1.28
4 | GGGUCGUGGAAUAAUAAUCGCGUGGAUAUGGCACGCAAGUUUCUACCGGGCACCGUAAAUGUCCGACUGGAGCCGUUCGGGCGGCUAUAAACAGACCUCAGGCCCGAAGCGUGGCGGCACCUGCCGCCGGUGGUAAAAAAGAUCGGAAGAGCACACGUCU [U8G U10A U11A C12U C13A] | 1.3
5 | GGGUCGUGGAAUUAUAAUCGCGUGGAUAUGGCACGCAAGUUUCUACCGGGCACCGUAAAUGUCCGACUGGAGCCGUUCGGGCGGCUAUAAACAGACCUCAGGCCCGAAGCGUGGCGGCACCUGCCGCCGGUGGUAAAAAAGAUCGGAAGAGCACACGUCU [U8G U10A U11A C12U C13U] | 1.14
6 | GGGUCGUGGAAUGAUAAUCGCGUGGAUAUGGCACGCAAGUUUCUACCGGGCACCGUAAAUGUCCGACUGGAGCCGUUCGGGCGGCUAUAAACAGACCUCAGGCCCGAAGCGUGGCGGCACCUGCCGCCGGUGGUAAAAAAGAUCGGAAGAGCACACGUCU [U8G U10A U11A C12U C13G] | 1.17
7 | GGGUCGUGGACCUAUAAUCGCGUGGAUAUGGCACGCAAGUUUCUACCGGGCACCGUAAAUGUCCGACUGGAGCCGUUCGGGCGGCUAUAAACAGACCUCAGGCCCGAAGCGUGGCGGCACCUGCCGCCGGUGGUAAAAAAGAUCGGAAGAGCACACGUCU [U8G U10A U11C C13U] | 1.03
8 | GGGUCGUGGACCAAUAAUCGCGUGGAUAUGGCACGCAAGUUUCUACCGGGCACCGUAAAUGUCCGACUGGAGCCGUUCGGGCGGCUAUAAACAGACCUCAGGCCCGAAGCGUGGCGGCACCUGCCGCCGGUGGUAAAAAAGAUCGGAAGAGCACACGUCU [U8G U10A U11C C13A] | 1.03
9 | GGGUCGUGGACCGAUAAUCGCGUGGAUAUGGCACGCAAGUUUCUACCGGGCACCGUAAAUGUCCGACUGGAGCCGUUCGGGCGGCUAUAAACAGACCUCAGGCCCGAAGCGUGGCGGCACCUGCCGCCGGUGGUAAAAAAGAUCGGAAGAGCACACGUCU [U8G U10A U11C C13G] | 1.02
10 | GGGUCGUGGAGCCAUAAUCGCGUGGAUAUGGCACGCAAGUUUCUACCGGGCACCGUAAAUGUCCGACUGGAGCCGUUCGGGCGGCUAUAAACAGACCUCAGGCCCGAAGCGUGGCGGCACCUGCCGCCGGUGGUAAAAAAGAUCGGAAGAGCACACGUCU [U8G U10A U11G] | 1.34
11 | GGGUCGUGGACCCAUAAUCGCGUGGAUAUGGCACGCAAGUUUCUACCGGGCACCGUAAAUGUCCGACUGGAGCCGUUCGGGCGGCUAUAAACAGACCUCAGGCCCGAAGCGUGGCGGCACCUGCCGCCGGUGGUAAAAAAGAUCGGAAGAGCACACGUCU [U8G U10A U11C] | 1.02
12 | GGGUCGUGGAGAAAUAAUCGCGUGGAUAUGGCACGCAAGUUUCUACCGGGCACCGUAAAUGUCCGACUGGAGCCGUUCGGGCGGCUAUAAACAGACCUCAGGCCCGAAGCGUGGCGGCACCUGCCGCCGGUGGUAAAAAAGAUCGGAAGAGCACACGUCU [U8G U10A U11G C12A C13A] | 1.11
13 | GGGUCGUGGAGAUAUAAUCGCGUGGAUAUGGCACGCAAGUUUCUACCGGGCACCGUAAAUGUCCGACUGGAGCCGUUCGGGCGGCUAUAAACAGACCUCAGGCCCGAAGCGUGGCGGCACCUGCCGCCGGUGGUAAAAAAGAUCGGAAGAGCACACGUCU [U8G U10A U11G C12A C13U] | 1.12
14 | GGGUCGUGGAGAGAUAAUCGCGUGGAUAUGGCACGCAAGUUUCUACCGGGCACCGUAAAUGUCCGACUGGAGCCGUUCGGGCGGCUAUAAACAGACCUCAGGCCCGAAGCGUGGCGGCACCUGCCGCCGGUGGUAAAAAAGAUCGGAAGAGCACACGUCU [U8G U10A U11G C12A C13G] | 1.12
15 | GGGUCGUGGAAAGAUAAUCGCGUGGAUAUGGCACGCAAGUUUCUACCGGGCACCGUAAAUGUCCGACUGGAGCCGUUCGGGCGGCUAUAAACAGACCUCAGGCCCGAAGCGUGGCGGCACCUGCCGCCGGUGGUAAAAAAGAUCGGAAGAGCACACGUCU [U8G U10A U11A C12A C13G] | 1.11
16 | GGGUCGUGGAAAUAUAAUCGCGUGGAUAUGGCACGCAAGUUUCUACCGGGCACCGUAAAUGUCCGACUGGAGCCGUUCGGGCGGCUAUAAACAGACCUCAGGCCCGAAGCGUGGCGGCACCUGCCGCCGGUGGUAAAAAAGAUCGGAAGAGCACACGUCU [U8G U10A U11A C12A C13U] | 1.13
17 | GGGUCGUGGAGGAAUAAUCGCGUGGAUAUGGCACGCAAGUUUCUACCGGGCACCGUAAAUGUCCGACUGGAGCCGUUCGGGCGGCUAUAAACAGACCUCAGGCCCGAAGCGUGGCGGCACCUGCCGCCGGUGGUAAAAAAGAUCGGAAGAGCACACGUCU [U8G U10A U11G C12G C13A] | 1.31
18 | GGGUCGUGGAACUAUAAUCGCGUGGAUAUGGCACGCAAGUUUCUACCGGGCACCGUAAAUGUCCGACUGGAGCCGUUCGGGCGGCUAUAAACAGACCUCAGGCCCGAAGCGUGGCGGCACCUGCCGCCGGUGGUAAAAAAGAUCGGAAGAGCACACGUCU [U8G U10A U11A C13U] | 1.17

Row | Variant | aptazyme ON/OFF ratio
19 | GGGUCGUGGAACAAUAAUCGCGUGGAUAUGGCACGCAAGUUUCUACCGGGCACCGUAAAUGUCCGACUGGAGCCGUUCGGGCGGCUAUAAACAGACCUCAGGCCCGAAGCGUGGCGGCACCUGCCGCCGGUGGUAAAAAAGAUCGGAAGAGCACACGUCU [U8G U10A U11A C13A] | 1.2
20 | GGGUCGUGGAACGAUAAUCGCGUGGAUAUGGCACGCAAGUUUCUACCGGGCACCGUAAAUGUCCGACUGGAGCCGUUCGGGCGGCUAUAAACAGACCUCAGGCCCGAAGCGUGGCGGCACCUGCCGCCGGUGGUAAAAAAGAUCGGAAGAGCACACGUCU [U8G U10A U11A C13G] | 1.07
21 | GGGUCGUGGAAGUAUAAUCGCGUGGAUAUGGCACGCAAGUUUCUACCGGGCACCGUAAAUGUCCGACUGGAGCCGUUCGGGCGGCUAUAAACAGACCUCAGGCCCGAAGCGUGGCGGCACCUGCCGCCGGUGGUAAAAAAGAUCGGAAGAGCACACGUCU [U8G U10A U11A C12G C13U] | 1.07
22 | GGGUCGUGGAAGAAUAAUCGCGUGGAUAUGGCACGCAAGUUUCUACCGGGCACCGUAAAUGUCCGACUGGAGCCGUUCGGGCGGCUAUAAACAGACCUCAGGCCCGAAGCGUGGCGGCACCUGCCGCCGGUGGUAAAAAAGAUCGGAAGAGCACACGUCU [U8G U10A U11A C12G C13A] | 1.12
23 | GGGUCGUGGAAGGAUAAUCGCGUGGAUAUGGCACGCAAGUUUCUACCGGGCACCGUAAAUGUCCGACUGGAGCCGUUCGGGCGGCUAUAAACAGACCUCAGGCCCGAAGCGUGGCGGCACCUGCCGCCGGUGGUAAAAAAGAUCGGAAGAGCACACGUCU [U8G U10A U11A C12G C13G] | 1.21
24 | GGGUCGUGGACAGAUAAUCGCGUGGAUAUGGCACGCAAGUUUCUACCGGGCACCGUAAAUGUCCGACUGGAGCCGUUCGGGCGGCUAUAAACAGACCUCAGGCCCGAAGCGUGGCGGCACCUGCCGCCGGUGGUAAAAAAGAUCGGAAGAGCACACGUCU [U8G U10A U11C C12A C13G] | 1.12
25 | GGGUCGUGGACAUAUAAUCGCGUGGAUAUGGCACGCAAGUUUCUACCGGGCACCGUAAAUGUCCGACUGGAGCCGUUCGGGCGGCUAUAAACAGACCUCAGGCCCGAAGCGUGGCGGCACCUGCCGCCGGUGGUAAAAAAGAUCGGAAGAGCACACGUCU [U8G U10A U11C C12A C13U] | 1.14
26 | GGGUCGUGGACAAAUAAUCGCGUGGAUAUGGCACGCAAGUUUCUACCGGGCACCGUAAAUGUCCGACUGGAGCCGUUCGGGCGGCUAUAAACAGACCUCAGGCCCGAAGCGUGGCGGCACCUGCCGCCGGUGGUAAAAAAGAUCGGAAGAGCACACGUCU [U8G U10A U11C C12A C13A] | 1.13
27 | GGGUCGUGGAAGCAUAAUCGCGUGGAUAUGGCACGCAAGUUUCUACCGGGCACCGUAAAUGUCCGACUGGAGCCGUUCGGGCGGCUAUAAACAGACCUCAGGCCCGAAGCGUGGCGGCACCUGCCGCCGGUGGUAAAAAAGAUCGGAAGAGCACACGUCU [U8G U10A U11A C12G] | 1.14
28 | GGGUCGUGGAAUCAUAAUCGCGUGGAUAUGGCACGCAAGUUUCUACCGGGCACCGUAAAUGUCCGACUGGAGCCGUUCGGGCGGCUAUAAACAGACCUCAGGCCCGAAGCGUGGCGGCACCUGCCGCCGGUGGUAAAAAAGAUCGGAAGAGCACACGUCU [U8G U10A U11A C12U] | 1.28
29 | GGGUCGUGGAGGCAUAAUCGCGUGGAUAUGGCACGCAAGUUUCUACCGGGCACCGUAAAUGUCCGACUGGAGCCGUUCGGGCGGCUAUAAACAGACCUCAGGCCCGAAGCGUGGCGGCACCUGCCGCCGGUGGUAAAAAAGAUCGGAAGAGCACACGUCU [U8G U10A U11G C12G] | 1.2
30 | GGGUCGUGGAGACAUAAUCGCGUGGAUAUGGCACGCAAGUUUCUACCGGGCACCGUAAAUGUCCGACUGGAGCCGUUCGGGCGGCUAUAAACAGACCUCAGGCCCGAAGCGUGGCGGCACCUGCCGCCGGUGGUAAAAAAGAUCGGAAGAGCACACGUCU [U8G U10A U11G C12A] | 1.12
31 | GGGUCGUGGACGAAUAAUCGCGUGGAUAUGGCACGCAAGUUUCUACCGGGCACCGUAAAUGUCCGACUGGAGCCGUUCGGGCGGCUAUAAACAGACCUCAGGCCCGAAGCGUGGCGGCACCUGCCGCCGGUGGUAAAAAAGAUCGGAAGAGCACACGUCU [U8G U10A U11C C12G C13A] | 1.13
32 | GGGUCGUGGACGGAUAAUCGCGUGGAUAUGGCACGCAAGUUUCUACCGGGCACCGUAAAUGUCCGACUGGAGCCGUUCGGGCGGCUAUAAACAGACCUCAGGCCCGAAGCGUGGCGGCACCUGCCGCCGGUGGUAAAAAAGAUCGGAAGAGCACACGUCU [U8G U10A U11C C12G C13G] | 1.33
33 | GGGUCGUGGACGUAUAAUCGCGUGGAUAUGGCACGCAAGUUUCUACCGGGCACCGUAAAUGUCCGACUGGAGCCGUUCGGGCGGCUAUAAACAGACCUCAGGCCCGAAGCGUGGCGGCACCUGCCGCCGGUGGUAAAAAAGAUCGGAAGAGCACACGUCU [U8G U10A U11C C12G C13U] | 1.33
34 | GGGUCGUGGACACAUAAUCGCGUGGAUAUGGCACGCAAGUUUCUACCGGGCACCGUAAAUGUCCGACUGGAGCCGUUCGGGCGGCUAUAAACAGACCUCAGGCCCGAAGCGUGGCGGCACCUGCCGCCGGUGGUAAAAAAGAUCGGAAGAGCACACGUCU [U8G U10A U11C C12A] | 1.18
35 | GGGUCGUGGACGCAUAAUCGCGUGGAUAUGGCACGCAAGUUUCUACCGGGCACCGUAAAUGUCCGACUGGAGCCGUUCGGGCGGCUAUAAACAGACCUCAGGCCCGAAGCGUGGCGGCACCUGCCGCCGGUGGUAAAAAAGAUCGGAAGAGCACACGUCU [U8G U10A U11C C12G] | 1.21
36 | GGGUCGUGGACUCAUAAUCGCGUGGAUAUGGCACGCAAGUUUCUACCGGGCACCGUAAAUGUCCGACUGGAGCCGUUCGGGCGGCUAUAAACAGACCUCAGGCCCGAAGCGUGGCGGCACCUGCCGCCGGUGGUAAAAAAGAUCGGAAGAGCACACGUCU [U8G U10A U11C C12U] | 1.03
